For assay [1], the target named is T1, IFNα receptor on GloResponse ISRE-luc2P/HEK293 cells (UniProt P17181).
T1 sequence (looked up) 1: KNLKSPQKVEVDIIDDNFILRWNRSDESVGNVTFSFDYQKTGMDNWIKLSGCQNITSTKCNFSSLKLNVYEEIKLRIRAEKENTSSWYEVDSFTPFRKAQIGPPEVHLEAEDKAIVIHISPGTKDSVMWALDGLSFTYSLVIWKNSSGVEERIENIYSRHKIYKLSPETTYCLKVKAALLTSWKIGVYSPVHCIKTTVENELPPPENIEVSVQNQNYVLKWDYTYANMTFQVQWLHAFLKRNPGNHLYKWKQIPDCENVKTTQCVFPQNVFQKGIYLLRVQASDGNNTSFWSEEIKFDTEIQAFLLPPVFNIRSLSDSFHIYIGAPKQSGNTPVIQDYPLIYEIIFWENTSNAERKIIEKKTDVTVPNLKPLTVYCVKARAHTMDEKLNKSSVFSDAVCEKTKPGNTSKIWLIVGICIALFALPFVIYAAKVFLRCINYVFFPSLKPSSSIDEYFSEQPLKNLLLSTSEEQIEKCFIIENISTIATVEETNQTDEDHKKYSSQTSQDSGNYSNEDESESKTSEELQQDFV
T1 sequence (looked up) 2: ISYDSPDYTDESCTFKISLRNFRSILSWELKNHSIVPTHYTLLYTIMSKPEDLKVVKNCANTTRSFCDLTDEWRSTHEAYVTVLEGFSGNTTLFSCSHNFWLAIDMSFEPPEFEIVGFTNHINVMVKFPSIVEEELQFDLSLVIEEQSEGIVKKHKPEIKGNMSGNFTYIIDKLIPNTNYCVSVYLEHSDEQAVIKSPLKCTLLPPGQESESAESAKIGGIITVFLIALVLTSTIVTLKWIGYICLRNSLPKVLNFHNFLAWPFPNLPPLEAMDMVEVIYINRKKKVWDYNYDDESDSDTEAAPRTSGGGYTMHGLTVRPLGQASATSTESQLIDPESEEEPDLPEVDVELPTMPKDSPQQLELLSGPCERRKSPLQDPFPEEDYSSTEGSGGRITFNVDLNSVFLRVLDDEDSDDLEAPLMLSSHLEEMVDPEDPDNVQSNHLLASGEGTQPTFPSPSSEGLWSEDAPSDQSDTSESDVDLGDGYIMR
Description: cell-based or functional assay.

Assay [2] has as its target IL-2Rβ/IL-2Rγ receptor subunits on PathHunter U2OS IL-2Rβ/IL-2Rγ/(IL-2Rα) cells (UniProt P14784). Description: cell-based or functional assay.

The substance “c9G4-PVGLIG-hIFNα2a cleaved by MMP-9 (released hIFNα2a) (from UniProt P01563 24-188) (ligand)” displayed an EC50, ISRE-luc2P/HEK293 luciferase reporter, +MMP9 in assay [1] of 0.02 nM.
For the substance “NHS76-PVGLIG-hIL-15 cleaved by MMP-9 (released hIL-15) (from UniProt P40933 49-162) (ligand)”, in assay [2], the EC50 of IL-15-induced IL-2Rβ/IL-2Rγ dimerisation (PathHunter U2OS chemiluminescence), +MMP-9 was 8.84 nM.
For “NHS76-PVGLIG-hIFNα2a cleaved by MMP-9 (released hIFNα2a) (from UniProt P01563 24-188) (ligand)”, the EC50, ISRE-luc2P/HEK293 luciferase reporter, +MMP9 in assay [1] turned out to be 0.03 nM.
The substance “H16/L16-PVGLIG-hIL-15 cleaved by MMP-9 (released hIL-15) (from UniProt P40933 49-162) (ligand)” had an EC50 of IL-15-induced IL-2Rβ/IL-2Rγ dimerisation (PathHunter U2OS chemiluminescence), +MMP-9 in assay [2] of 2.84 nM.
For the substance “H16/L16-PVGLIG-hIFNα2a cleaved by MMP-9 (released hIFNα2a) (from UniProt P01563 24-188) (ligand)”, in assay [1], the EC50, ISRE-luc2P/HEK293 luciferase reporter, +MMP9, no pre incubation of the cells with H16/L16 antibody was found to be 0.02 nM and the EC50, ISRE-luc2P/HEK293 luciferase reporter, +MMP9, pre incubation of the cells with H16/L16 antibody (to saturate IGF1-R binding sites) turned out to be 0.02 nM.
With “NHS76-PVGLIG-hIFNα2a (from UniProt P01563 23-188)”, in assay [1], the EC50, ISRE-luc2P/HEK293 luciferase reporter, -MMP9 was found to be 5.33 nM.
In assay [2], “Recombinant human IL-15 (from UniProt P40933 49-162) (ligand)” yielded an EC50 of IL-15-induced IL-2Rβ/IL-2Rγ dimerisation (PathHunter U2OS chemiluminescence), +MMP-9 of 0.71 nM and an EC50 of IL-15-induced IL-2Rβ/IL-2Rγ dimerisation (PathHunter U2OS chemiluminescence), -MMP-9 of 0.72 nM.
Turning to “c9G4-PVGLIG-hIL-15 cleaved by MMP-9 (released hIL-15) (from UniProt P40933 49-162) (ligand)”, the EC50 of IL-15-induced IL-2Rβ/IL-2Rγ dimerisation (PathHunter U2OS chemiluminescence), +MMP-9 in assay [2] was 2.07 nM.
In assay [1], “Recombinant human IFNα2a (from UniProt P01563 24-188) (ligand)” had an EC50, ISRE-luc2P/HEK293 luciferase reporter, +MMP9 of 0.05 nM and an EC50, ISRE-luc2P/HEK293 luciferase reporter, -MMP9 of 0.08 nM.
